# According to doi:10.1101/2021.04.27.441613 (bioRxiv, 2021):
# Biological target: the molecule itself
# Experiment: SEC + other: SDS-PAGE
protein,measurement,value
dLanYFP (other) MSLPATHELHIFGSFNGVDFDMVGRGTGNPNDGYEELNLKSTKGALQFSPWILVPQIGYGFHQYLPFPDGMSPFQAAMKDGSGYQVHRTMQFEDGASLTSNYRYTYEGSHIKGEFQVKGTGFPADGPVMTNSLTAADWCVTKMLYPNDKTIISTFDWTYTTGSGKRYQSTVRTTYTFAKPMAANILKNQPMFVFRKTELKHSKTELNFKEWQKAFTDVM,stoichiometry N,2
